Laboratory results from patent publication US9249224B2 (RINAT NEUROSCIENCE CORP., priority 2011, dated 2016).

System: cyno GHR
Experiment: STAT5 phosphorylation in vitro assay, cyno GHR-transfected HEK293 cells
Format: cell-based, cynomolgus monkey
Settings: for fluorescent signal ave (phospho-STAT5): Table 8, cyno GHR-transfected cells
Procedure: This Example illustrates the effect of GHR antibodies in an in vitro STAT5 phosphorylation assay. In this Example, the ability of GHR antibodies to block GHR downstream signaling was tested in vitro using human GHR overexpressing cells and cyno GHR overexpressing cells.
GHR antagonist antibody Ab13 was tested for its ability to block STAT5 in an in vitro assay. HEK293 cells were transiently transfected with either DNA encoding full-length human GHR (SEQ ID NO: 140) or DNA encoding full-length cyno GHR (SEQ ID NO: 141). Cells were cultured in freestyle media for approximately 60 hours before testing. Cells were washed with DPBS (Dulbecco's Phosphate-Buffered Saline) and resuspended in Freestyle media, then counted using a hemocytometer. 1×10^6 cells were seeded per well in 6-well plates in 2 mls of Freestyle media. Cells were incubated for 2 hours at 37° C., then treated with 5, 50, or 500 nM Ab13 antibody in media. Cells were incubated at 37° C. with gentle mixing for 5 min with antibodies. 4.5 nM GH (Genotropin) was then added to all but control wells. Cells were incubated with GH at 37° C. with gentle mixing for 10 minutes.
Following incubation with GH, 2 ml of ice cold DPBS with 1× protease inhibitor cocktail (Roche) and 1 mM sodium orthovanadate (BioLabs) were added to each well and the plates were placed on ice. Cells were transferred to 5 ml tubes and spun down to create a cell pellet and the wash buffer was aspirated, leaving the cell pellet.
Reagents from Millipore™ MILLIPLEX® MAP Cell Signaling Buffer and Detection Kit (cat. #48-602) were used to lyse and treat the cell pellets. Millipore lysis buffer with 1× protease inhibitor cocktail and 1 mM sodium orthovanadate was added to each pellet at a volume of 200 ul/pellet. Cells were vortexed and incubated for 15 minutes at room temp with occasional vortexing. Millipore Assay buffer 2 with 1× protease inhibitor cocktail and 1 mM sodium orthovanadate was then added to the lysates at 300 ul/well.
Millipore™ MILLIPLEX® MAP Phospho STAT5N8 (Tyr694/699) MAPmate™ beads (Cat. #46-641) were resuspended in Assay Buffer 2 (from Millipore™ kit cat. #48-602) and loaded on a 96-well filter plate (provided in kit) at 25 ul/well, 25 ul/well of sample lysate was added to the wells and the beads and samples were incubated overnight at 4′C with shaking in the dark.
The liquid was then aspirated using a vacuum manifold and the remaining beads were washed using Millipore™ kit wash buffer. 25 ul Millipore™ kit detection antibody was added and incubated for 1 hour at room temperature with shaking in the dark. The detection antibody was vacuumed through and 25 ul kit streptavidin—Phycoerythrin was added and incubated in the dark for 15 min with shaking. 25 ul kit amplification buffer was then added and incubated for 15 min with shaking in the dark. The liquid was aspirated using a vacuum manifold, and the beads were resuspended in 150 ul kit assay buffer 2 and mixed on a shaker for 5 minutes before reading the plate.
The plate was read using a Luminex™ 200 instrument and fluorescent signal emitted from the samples was measured, The results of the STAT5 assay are shown in Tables 5 and 6. “Ave” indicates the average fluorescent signal, and “SEM” indicates the standard error of the mean.
Antibodies SS3 and SS1 (hIgG2Δa) were tested using a STAT5 phosphorylation assay. For the STAT5 assay, full-length human GHR overexpressing HEK293 cells or full-length cyno GHR-overexpressing HEK293 cells were cultured, counted by automated cell counter, and seeded in warm freestyle media in 12-well plates (5×10^5 cells/well in 1 ml media). Cells were allowed to settle for 3 hours at 37° C. then treated with 2.5, 5, 50, or 500 nM of SS1 or SS3 in media. […] Cells were incubated with GH at 37° C. with gentle mixing for 10 minutes.
Reagents from Millipore™ MILLIPLEX® MAP Cell Signaling Buffer and Detection Kit (cat, #48-602) were used to lyse and treat the cell pellets. […]

Sequence of cyno GHR (as listed by the source): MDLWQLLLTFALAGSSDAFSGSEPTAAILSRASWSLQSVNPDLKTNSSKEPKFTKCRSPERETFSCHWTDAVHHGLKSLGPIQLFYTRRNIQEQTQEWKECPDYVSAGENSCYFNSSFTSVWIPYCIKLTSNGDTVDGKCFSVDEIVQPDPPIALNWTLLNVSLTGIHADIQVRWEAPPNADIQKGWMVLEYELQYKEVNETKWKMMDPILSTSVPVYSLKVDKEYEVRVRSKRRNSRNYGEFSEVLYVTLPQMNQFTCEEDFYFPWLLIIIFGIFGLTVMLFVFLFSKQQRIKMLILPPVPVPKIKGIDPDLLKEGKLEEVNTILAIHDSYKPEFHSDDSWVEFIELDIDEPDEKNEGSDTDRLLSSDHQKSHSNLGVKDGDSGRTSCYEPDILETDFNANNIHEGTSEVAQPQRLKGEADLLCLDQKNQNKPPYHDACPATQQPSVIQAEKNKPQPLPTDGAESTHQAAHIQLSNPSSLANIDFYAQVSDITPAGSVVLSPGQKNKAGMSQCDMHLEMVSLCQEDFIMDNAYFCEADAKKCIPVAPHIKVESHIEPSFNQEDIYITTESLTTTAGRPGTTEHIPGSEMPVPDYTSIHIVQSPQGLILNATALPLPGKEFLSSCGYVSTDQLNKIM

B1: SS1: humanized GHR antagonist antibody; VL SEQ ID NO: 7, VH SEQ ID NO: 8; hIgG2Δa heavy chain SEQ ID NO: 134, light chain SEQ ID NO: 135 (antibody)
heavy: EVQLVESGGGLVKPGGSLRLSCAASGFTFSDAWMDWVRQAPGKGLEWVAEIRSKANYHATYYAESVKGRFTISRDDSKNTLYLQMNSLKTEDTAVYYCTLIRDYWGQGTLVTVSSASTKGPSVFPLAPCSRSTSESTAALGCLVKDYFPEPVTVSWNSGALTSGVHTFPAVLQSSGLYSLSSVVTVPSSNFGTQTYTCNVDHKPSNTKVDKTVERKCCVECPPCPAPPVAGPSVFLFPPKPKDTLMISRTPEVTCVVVDVSHEDPEVQFNWYVDGVEVHNAKTKPREEQFNSTFRVVSVLTVVHQDWLNGKEYKCKVSNKGLPSSIEKTISKTKGQPREPQVYTLPPSREEMTKNQVSLTCLVKGFYPSDIAVEWESNGQPENNYKTTPPMLDSDGSFFLYSKLTVDKSRWQQGNVFSCSVMHEALHNHYTQKSLSLSPGK
light: EIVLTQSPGTLSLSPGERATLSCTATSSVSSSYLNWYQQKPGQAPRLLIYSTSNLASGIPDRFSGSGSGTDFTLTISRLEPEDFAVYYCHQYHRSTPTFGGGTKVEIKRTVAAPSVFIFPPSDEQLKSGTASVVCLLNNFYPREAKVQWKVDNALQSGNSQESVTEQDSKDSTYSLSSTLTLSKADYEKHKVYACEVTHQGLSSPVTKSFNRGEC
modifications: Humanized and/or affinity matured antibody sequence
- fluorescent signal ave (phospho-STAT5) (2.5 nM antibody + 4.5 nM GH): 496
- fluorescent signal ave (phospho-STAT5) (5 nM antibody + 4.5 nM GH): 223
- fluorescent signal ave (phospho-STAT5) (50 nM antibody + 4.5 nM GH): 17
- fluorescent signal ave (phospho-STAT5) (500 nM antibody + 4.5 nM GH): 12
- effect on GH-stimulated STAT5 signaling (cells expressing cyno GHR, 4.5 nM GH): blocked STAT5 signaling in a dose-dependent manner
